B1: 23A3.4 (peptide)
peptide displayed on M13 phage as a fusion to g8p: EPWLCQYYEAAMLYLCWEEG
modifications: not fully specified (bridges); cysteine pairing not given here; also: displayed on phage coat protein g8
notes: whole phage particle in the assay; also called peptide-phage clone 23A3.4 (g8 display)
B2: 23B3.2 (peptide)
peptide displayed on M13 phage as a fusion to g8p: EVLLCSDGPQLYLCELYA
modifications: not fully specified (bridges); cysteine pairing not given here; also: displayed on phage coat protein g8
notes: whole phage particle in the assay; also called peptide-phage clone 23B3.2 (g8 display)
B3: 23D3.1 (peptide)
peptide displayed on M13 phage as a fusion to g8p: FGGWSCQPTWVDVYVCNFEE
modifications: not fully specified (bridges); cysteine pairing not given here; also: displayed on phage coat protein g8
notes: whole phage particle in the assay; also called peptide-phage clone 23D3.1 (g8 display)
B4: 23B3.6 (peptide)
peptide displayed on M13 phage as a fusion to g8p: EVLLCSDGPQLYLCELYA
modifications: not fully specified (bridges); cysteine pairing not given here; also: displayed on phage coat protein g8
notes: whole phage particle in the assay; also called peptide-phage clone 23B3.6 (g8 display)
B5: 23A3.1 (peptide)
peptide displayed on M13 phage as a fusion to g8p: EPWLCQYYEAAMLYLCWEEG
modifications: not fully specified (bridges); cysteine pairing not given here; also: displayed on phage coat protein g8
notes: whole phage particle in the assay; also called peptide-phage clone 23A3.1 (g8 display)
B6: 23B3.7 (peptide)
peptide displayed on M13 phage as a fusion to g8p: GDVECIEGPWGELCVWAD
modifications: not fully specified (bridges); cysteine pairing not given here; also: displayed on phage coat protein g8
notes: whole phage particle in the assay; also called peptide-phage clone 23B3.7 (g8 display)
B7: 23D3.2 (peptide)
peptide displayed on M13 phage as a fusion to g8p: AMWVCVSDWETVEECIQYMY
modifications: not fully specified (bridges); cysteine pairing not given here; also: displayed on phage coat protein g8
notes: whole phage particle in the assay; also called peptide-phage clone 23D3.2 (g8 display)
B8: 23B3.1 (peptide)
peptide displayed on M13 phage as a fusion to g8p: TGVDCQCGPVHCVCMDWA
notes: whole phage particle in the assay; also called peptide-phage clone 23B3.1 (g8 display)
B9: 23D3.5 (peptide)
peptide displayed on M13 phage as a fusion to g8p: AMWVCVSDWETVEECIQYMY
modifications: not fully specified (bridges); cysteine pairing not given here; also: displayed on phage as g8p fusion
notes: whole phage particle in the assay; also called peptide-phage clone 23D3.5 (g8 display)
B10: 23D3.4 (peptide)
peptide displayed on M13 phage as a fusion to g8p: AMWVCVSDWETVEECIQYMY
modifications: not fully specified (bridges); cysteine pairing not given here; also: displayed on phage coat protein g8
notes: whole phage particle in the assay; also called peptide-phage clone 23D3.4 (g8 display)
B11: 23B3.5 (peptide)
peptide displayed on M13 phage as a fusion to g8p: DKEVCYLGPETWLCFWWP
modifications: not fully specified (bridges); cysteine pairing not given here; also: displayed on phage coat protein g8
notes: whole phage particle in the assay; also called peptide-phage clone 23B3.5 (g8 display)
B12: 23B3.4 (peptide)
peptide displayed on M13 phage as a fusion to g8p: SGVECVWGPQWGFCVEEY
modifications: not fully specified (bridges); cysteine pairing not given here; also: displayed on phage coat protein g8
notes: whole phage particle in the assay; also called peptide-phage clone 23B3.4 (g8 display)
B13: 23D3.3 (peptide)
peptide displayed on M13 phage as a fusion to g8p: AMWVCVSDWETVEECIQYMY
modifications: not fully specified (bridges); cysteine pairing not given here; also: displayed on phage coat protein g8
notes: whole phage particle in the assay; also called peptide-phage clone 23D3.3 (g8 display)

These results are taken from US20090011988A1 (Genentech, published 2009).

No end group written: not given here.

The target of the assay is recombinant human IGFBP-3 (human, UniProt P17936 28-291). In words: phage ELISA (IGF-blocking phage assay): g8 peptide-phage on an IGFBP-3-coated plate, without and with IGF-1; OD492. As for the experimental part: The plates were then washed ten times, as above, and a solution of rabbit anti-phage antibody mixed with a goat-anti-rabbit conjugate of horseradish peroxidase was added. After an incubation of 1 hour at room temperature, the plates were developed with a chromogenic substrate, o-phenylenediamine (Sigma). The reaction was stopped with addition of ½ volume of 2.5 M H₂SO₄. Optical density at 490 nm was measured on a spectrophotometric plate reader.
Sequence of recombinant human IGFBP-3 (P17936 28-291 limits assumed): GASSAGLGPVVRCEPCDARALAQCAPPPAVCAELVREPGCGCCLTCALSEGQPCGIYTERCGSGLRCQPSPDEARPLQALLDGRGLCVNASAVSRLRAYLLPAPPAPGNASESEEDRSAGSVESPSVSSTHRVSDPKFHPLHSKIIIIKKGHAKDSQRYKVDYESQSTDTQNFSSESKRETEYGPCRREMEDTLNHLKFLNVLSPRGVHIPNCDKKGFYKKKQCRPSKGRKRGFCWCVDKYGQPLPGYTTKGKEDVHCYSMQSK
In each case, the phagemid clone was grown from a single colony overnight at 37° C. in a culture volume of 5 ml. The phage particles were prepared as described above.
Background: In an ELISA, binding on a coated surface is turned into a signal by an enzyme label.
With B1, the binding result was “binds”. The same measure for B2: “binds”. On to B3, for which the binding result is reported as “binds”.

As to B4, the binding result is on record as “binds”. B5: the binding result is reported as “binds”. For B6 the value was “binds”. For B7 the value was “binds”. Turning to B8, the binding result is listed as “binds”. As to B9, the binding result is listed as “binds”. As to B10, the binding result was “binds”. As for B11, the binding result is reported as “binds”. The same measure for B12: “binds”; for B13: “binds”.
